Data reported in patent US20190127480A1 (Regeneron, published 2019).

Tests used:
[1] = biological target: T1, human CD3 expressed on cells (Jurkat cells; human T-cells of PBMC) (human, UniProt P09693 23-182; P20963 22-164); experiment: FACS titration on Jurkat cells (CD3+ human T-cell line)
T1 construct: whole, on cells; Native CD3 on the cell surface; also called hPBMC
Experimental: (§1) FACS data was acquired using the following protocol: Cells at 2×10⁵ per well were incubated with serially diluted antibodies for 30 min on ice. Post incubation, cells were washed and secondary antibody was added and incubated for an additional 30 minutes. After incubation, cells were washed, re-suspended in cold PBS containing 1% BSA and analyzed by flow cytometry with viable Jurkat cells gated by side and forward scatters. The EC₅₀s for cell binding titration were determined using Prism software with values calculated using a 4-parameter non-linear regression analysis.

[2] = biological target: T1, human CD3 expressed on cells (Jurkat …); experiment: cell-based or functional assay
[3] = biological target: T1, human CD3 expressed on cells (Jurkat …); experiment: cell-based or functional assay; remark: listed apart in the source
[4] = biological target: T2, human CD3 expressed on cells (Jurkat cells, a CD3+ human T-cell line; human PBMC T cells) (human, UniProt P07766 23-207; P04234 22-171); experiment: FACS on Jurkat cells
T2 construct: Cell-surface CD3 within the T cell receptor complex
T2 sequence (P07766 23-207 limits assumed, chain 1 of 2): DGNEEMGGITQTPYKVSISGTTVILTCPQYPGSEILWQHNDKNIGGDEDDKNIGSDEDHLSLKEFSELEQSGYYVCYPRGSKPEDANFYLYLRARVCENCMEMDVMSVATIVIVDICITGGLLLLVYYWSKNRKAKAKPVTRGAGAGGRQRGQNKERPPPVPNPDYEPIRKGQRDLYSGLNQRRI
T2 sequence (P04234 22-171 limits assumed, chain 2 of 2): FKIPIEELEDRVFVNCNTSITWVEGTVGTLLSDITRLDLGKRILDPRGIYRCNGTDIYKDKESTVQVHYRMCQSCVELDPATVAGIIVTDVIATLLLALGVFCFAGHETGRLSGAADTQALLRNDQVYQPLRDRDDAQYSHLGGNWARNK
Experimental: as §1

[5] = biological target: T2, human CD3 expressed on cells (Jurkat …); experiment: cell-based or functional assay
[6] = biological target: T3, Soluble heterodimeric CD3 protein (hCD3-epsilon/hCD3-delta) with either a human Fc tag (hFcΔAdp/hFc) or a … (human, UniProt P07766 23-126; P04234 22-105); experiment: SPR Biacore 25C antigen-capture
T3 construct: also called hCD3ε/δ; not shown: Fc tag: human (hFcΔAdp/hFc)
T3 sequence (P07766 23-126 limits assumed, stated change not applied, chain 1 of 2): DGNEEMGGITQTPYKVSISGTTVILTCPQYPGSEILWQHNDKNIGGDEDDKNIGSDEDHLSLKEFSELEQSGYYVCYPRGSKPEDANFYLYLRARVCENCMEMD
T3 sequence (P04234 22-105 limits assumed, stated change not applied, chain 2 of 2): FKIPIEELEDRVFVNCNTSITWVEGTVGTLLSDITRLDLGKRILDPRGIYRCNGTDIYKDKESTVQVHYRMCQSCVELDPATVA
Method in brief: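 Rate constants fitted to a 1:1 model, giving KD as kd/ka and dissociative half-life as ln2/(60·kd) minutes. Antibodies flowed over CD3ε/δ heterodimer captured on anti-human or anti-mouse Fc surfaces, run on a Biacore T200 at 25 °C.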

T1 sequence (chain, as listed by the source, chain 1 of 4): as the sequence (P07766 23-207 limits assumed, chain 1 of 2) above
T1 sequence (chain, as listed by the source, chain 2 of 4): as the sequence (P04234 22-171 limits assumed, chain 2 of 2) above
T1 sequence (P09693 23-182, chain 3 of 4): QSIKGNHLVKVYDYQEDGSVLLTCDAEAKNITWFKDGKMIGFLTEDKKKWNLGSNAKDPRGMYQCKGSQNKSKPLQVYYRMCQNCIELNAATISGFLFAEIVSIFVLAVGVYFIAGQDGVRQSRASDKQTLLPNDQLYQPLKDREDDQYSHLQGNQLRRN
T1 sequence (P20963 22-164, chain 4 of 4): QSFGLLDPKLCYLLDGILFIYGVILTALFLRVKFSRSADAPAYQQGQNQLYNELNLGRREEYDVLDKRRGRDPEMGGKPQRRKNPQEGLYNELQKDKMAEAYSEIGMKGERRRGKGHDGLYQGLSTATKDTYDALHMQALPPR

EC50 [1] [pM] | EC50 [M] hPBMC Proliferation [3] [M] | binding result [1] | EC50 [4] [pM] | EC50 [M] hPBMC Proliferation [5] [M] | Kd [6] [pM] | T½ [6] [h] | koff [6] [s⁻¹] | kon [6] [M⁻¹ s⁻¹] | Binder | U937 Cytotoxicity Human T-cells [2] [pM]
– | 5.17e-12 | no binding | – | – | – | – | – | – | H1H5782P (antibody, human IgG1, V domains shown, H1H: human IgG1 Fc) VH: EVQLVESGGGLVQPGRSLRLSCAASGFTFDDYAMHWVRQAPGKGLEWVSGISWNSGSKDYADSVKGRFTISRDNTRNSLFLQMNSLRTEDTALYYCAKDKSGYGSFYYGMDVWGQGTTVTVSS VL: not shown | 5.18
– | – | – | 3990 | 3.16e-12 | 231 | 0.333 | 0.000587 | 2.55e+06 | H2M3540N (antibody, mouse IgG2, V domains shown, H2M: mouse IgG2 Fc, human variable regions; divalent) VH: QVHLEESGGGVVQPGRSLRLSCSASGFTFSSYAMHWVRQAPGKGLEWVAVIWYDGTNKYYLDSVKGRFTISRDNSKNTLFLQMNSLRAEDTAVYYCARDRGSIITHWGQGTLVTVSS VL: DIQMTQSPSSLSASIGDRVTITCRASQNISSYLNWYQQKPGKAPKLLIYAASSLQSGVPSRFSGSGSGTDFTLTISSLQPEDFATYYCQQTYSTPPITFGQGTRLEIK | –
– | – | – | 1070 | 7.74e-12 | 77.3 | 4.03 | 4.77e-05 | 616000 | H2M3563N (antibody, mouse IgG2, V domains shown, H2M: mouse IgG2 Fc, human variable regions; divalent) VH: EVHLVESGGGLVQPGRSLRLSCAASGFTFDDYTMHWVRQAPGKGLEWVSDISWNSGSIGYADSVKGRFTVSRDNAKNSLYLQMNSLRGEDTALYYCAKDMSGYGHYGKYGMDVWGQGTTVTVSS VL: DIQMTQSPSSLSASVGDRVTITCRASQSIRSYLNWYQQKPGKVPKLLIYAASSLQSGVPSRFSGSGSGTDFTLTINSLQPDDFATYYCQQTYSNPPITFGQGTRLEIK | –
– | – | – | 5630 | 6.12e-12 | 653 | 2.42 | 7.96e-05 | 122000 | H2M3543N (antibody, mouse IgG2, V domains shown, H2M: mouse IgG2 Fc, human variable regions; divalent) VH: EVQLVESGGGLVQPGRSLRLSCAASGFTFDDYTMHWVRQAPGKGLEWVSDISWNSGSIGYADSVKGRFTVSRDNAKNSLYLQMNSLRGEDTALYYCAKDMSGYAHYGYYGMDVWGQGTTVTVSS VL: DIQMTQSPSSLSASVGDRVTITCRASQSIRNYLNWYQQKPGKVPKLLIYAASSLQSGVPSRFSGSGSGTDFTLTISSLQPEDFATYYCQQSYSNPPITFGQGTRLEIK | –
– | – | – | 2710 | 5.02e-12 | ≤ 21.5 | 19.2 | ≤ 1e-05 | – | H2M3547N (antibody, mouse IgG2, V domains shown, H2M: mouse IgG2 Fc, human variable regions; divalent) VH: EAQLVESGGGLVQPGRSLRLSCTTSGFTFDDYTMHWVRQAPGKGLEWISDISWNGGTKGYADSVKGRFTISRDNAKNSLYLQMDSLRGEDTALYYCVKDKSGYGHFYFGLDVWGQGTTVTVSS VL: DIQMTQSPSSLTASVGDRVTFTCRASQSISRHLSWYQQKPGKAPKLLIYAASSLESGVPSRFSGSGSGTDFTLTISSLHPEDFATYYCQQSYSNPPITFGQGTRLEIK | –
– | – | – | 3700 | 6.4e-12 | 13800 | 0.167 | 0.00116 | 84000 | H2M3541N (antibody, mouse IgG2, V domains shown, H2M: mouse IgG2 Fc, human variable regions; divalent) VH: EVQLVESGGGLVRPGRSLRLSCAASGFTFDDYTMHWVRQAPGKGLEWVSDISWNSGTIGYADSVKGRFTISRDNAKNSLYLQMNSLRPEDTALYYCAKDMSGYAHYYYYGMDVWGQGTTVTVSS VL: not shown | –
– | – | – | 2160 | 2.51e-11 | 554 | 0.6 | 0.000321 | 580000 | H2M2777N (antibody, mouse IgG2, V domains shown, H2M: mouse IgG2 Fc, human variable regions; divalent) VH: QVQLVESGGGVVQPGRSLRLSCIASGFTFRSYGMHWVRQAPGKGLEWVAMIYYDGNNKYYADSVRGRFTISRDNSKNTLYLQMNSLRADDTAVYFCARGPGYNWLDPWGQGTLVTVSS VL: EIVMTQSPATLSVSPGERATLSCRASQSVSSNLAWYQQKPGQAPRLLIYGASTRATGIPARFSGSGSGTEFTLTISSLQSEDFAVYYCQQYNNRPLTFGGGTKVEIK | –
– | – | – | 7680 | 6.72e-13 | 541 | 0.6 | 0.000321 | 591000 | H2M2862N (antibody, mouse IgG2, V domains shown, H2M: mouse IgG2 Fc, human variable regions; divalent) VH: QVQLVESGGGVVQPGRSLRLSCAASGFTFRSYGMHWVRQAPGKGLEWVAMIYYDGNNKKYADSVRGRFTISRDNSKNTLYLQMNSLRVEDTAVYFCARGPGYNWLDPWGQGTLVTVSS VL: EIVMTQSPATLSVSPGERATLSCRASQSVSRNLAWYQQKPGQAPRLLIYGASTRATDIPARFSGSGSGTEFILNISSLQSEDFALYYCQQYSNWPLTFGGGTEVEIK | –

Continued, binder first:

Binder | EC50 [1] [pM] | EC50 [M] hPBMC Proliferation [3] [M] | binding result [1] | EC50 [4] [pM] | EC50 [M] hPBMC Proliferation [5] [M] | Kd [6] [pM] | T½ [6] [h] | koff [6] [s⁻¹] | kon [6] [M⁻¹ s⁻¹] | U937 Cytotoxicity Human T-cells [2] [pM]
H1H5752P (antibody, human IgG1, V domains shown, H1H: human IgG1 Fc) VH: QVQLVESGGGVVQPGRSLRPSCAASGFSFRDYGMHWVRQAPGKGLEWMAHIWYNGKNKYYADSVKGRFTISRDNSKNTLYLQMNSLRPEDTAVYYCARDGVSARGTPFDYWGQGTLVTVSS VL: ETTLTQSPAFMSAAPGDKVSISCIASQYIDDDVNWYQQKPGETAIFIIQEASTLVPGISPRFSGSGYGTHFTLTINNIDSEDAAFYFCLQHDNFPYTFGQGTKLEIK | 343 | 1.09e-12 | – | – | – | – | – | – | – | 18.5
H1H5753B (antibody, V domains shown) VH: QVQLVESGGGLVQPGGSLRLSCAASYFTFSSFAMNWVRQAPGQGLEWVSAISGRVSAISGSGGITYYADSVKGRFIISRDNSKNTLYLQMSGLRAEDTAVYYCAKGPYLTTVTPFDYWGQGTLVTVSS VL: DIQLTQSPSSVSASVGDRVTITCRASQGISSWLAWYQQKPGKAPKLLIYAVSSLQNGVPSRFSGSGSGTDFTLTISSLQPEDFATYYCQQANSFPFTFGPGTKLEIK | – | 9.14e-11 | – | – | – | – | – | – | – | 379
H1H5786B (antibody, human IgG1, V domains shown, H1H: human IgG1 Fc) VH: QVQLVESGAEVKKPGASVKVSCKTSGYTFTGYYMHWIRQAPGQGLEWMGWINPKSGGTNYAQKFQGRVTMTRDTSISTAYMELSRLRSDDMAVYYCARMGDGAVFDFWGQGTLVTVSS VL: AIQMTQSPSSLSASVGDRVTITCRASQRISSFLNWYQQKPGKAPKLLIYTASNLQNGVPSRFSGSGSGTDFTLTISSLQPEDFATYYCQQSYRTPLTFGGGTKVEIKR | 1100 | 1.79e-12 | – | – | – | – | – | – | – | 61
H1H5755B (antibody, human IgG1, V domains shown, H1H: human IgG1 Fc) VH: EVQLVESGGGVVQPGRSLRLSCAASGFTFSNYGMHWVRQAPGKGLEWVTVILHDGSYKYYADSVKGRFTISRDNSKNTLHLQMNSLRTEDTAVYYCAKGPMFRGVPYNHYYGMDVWGQGTTVTVSS VL: DIQMTQSPSSLSASVGDRVTITCRASQGIRNDLGWYQQKPGKAPKRLIYAASSLQSGVSSRFSGSGSGTEFTLTISSLQPEDFATYYCLQHNSYPYTFGQGTKVEIKR | 1230 | 4.24e-12 | – | – | – | – | – | – | – | 51.6
H1H5757B (antibody, human IgG1, V domains shown, H1H: human IgG1 Fc) VH: EVQLVESGGGVVQPGRSLRLSCAASGFTFSSYGMHWVRQAPGKGLEWVTVILHDGSNRYSADSVKGRFTISRDNSKNTLYLQMNILRVEDTAVYYCTKGAMVRGVPYNHYYGMDVWGQGTTVTVSS VL: DIQMTQSPSSLSASVGDRVTITCRASQGIRNDLGWYQQKPGKAPKRLIYAASILQSGVPSRFSGSGSGTEFTLTISSLQPEDFATYYCLQHNSYPYTFGQGTKLEIKR | 3380 | 4.86e-12 | – | – | – | – | – | – | – | 96.5
H1H5758B (antibody, human IgG1, V domains shown, H1H: human IgG1 Fc) VH: EVQLVESGGGVVQPGRSLRLSCAASGFTFSSYGMHWVRQAPGKGLEWVTVILHDGSNRYYADSVKGRFTISRDNSKNTLYLQMNILRAEDTAVYYCTKGAMVRGVPYNHYYGMDVWGQGTTVTVSS VL: DIVMTQSPSSLSASVGDRVTITCRASQGIRNDLGWYQQKPGKAPKRLIYAASNLQSGVPSRFSGSGSGTEFTLTISSLQPEDFATYYCLQHNSYPYTFGQGTKLEIKR | 1900 | 2.13e-12 | – | – | – | – | – | – | – | 88600
H1M2712N (antibody, mouse IgG1, V domains shown, H1M: mouse IgG1 Fc; divalent) VH: EVQLVESGGGLVQPGGSLRLSCAATGFTFDDFTMHWVRQAPGKGLEWVSGISWNSGSIGYVDSVKGRFTISRDNAKNSLYLQMNSLRAEDTALYYCAKDNSGYGYYYYGMDVWGQGTTVTVSS VL: EIVMTQSPATLSVSPGERATLSCRASHSVSRNSAWYQQKPGQAPRLLIYGASTRATGIPARFSGSGSGTEFTLTISSLQSEDFAIYYCQQYNNWPLTFGGGTKVEIK | – | – | – | 21900 | 1.28e-10 | 295 | 14.1 | 1.37e-05 | 47500 | –
H1H5763P (antibody, human IgG1, V domains shown, H1H: human IgG1 Fc) VH: QVQLVESGGGVVQPGRSLRLSCAASGLTFSSYGMHWVRQAPGKGLEWVAVISYDGSNKYYTDSVKGRFTISRDNSKNTLYLQMNSLRAEDTAVYYCAKGAMVRGVPYNYYYGMDVWGQGTTVTVSS VL: DIQMTQSPSSLSASVGDRVTITCRASQGIRNDLGWYQQKPGKAPKRLIYAASSLQSGVPSRFSGSGSGTEFTLTISSLQPEDFATYYCLQHNSYPYTFGQGTKLEIK | 2760 | 3.11e-13 | – | – | – | – | – | – | – | –
